Measurements as given in paper PMC2229591.

How the values were obtained:
[1] = molecular target: filamentous actin (rabbit muscle) (rabbit) (UniProt P68135); assay: co-sedimentation; settings: scale: actin per fragment
[2] = molecular target: C0 fragment of cardiac myosin binding protein C (MyBP-C) (human); assay: pull-down + co-IP

| stoichiometry N [1] | concentration that gives half-maximum binding [2] [µM] | Substance |
| --- | --- | --- |
| 7 |  | C0C2 fragment of cardiac MyBP-C (domain or fragment) |
|  | < 10 | filamentous actin (rabbit muscle) (from UniProt P68135 1-377) (natural protein) |
